Here are results for one molecule from PMC9889962 (Antibody Therapeutics, 2023).

This assay has as its target T1, FcRn receptor (UniProt P55899 24-365).
T1 construct: also called purified FcRn
Description: SPR. Particulars: both partners purified.

B1: LiVE-Longer YTE chimera (ACE-2 LVE/STR-YTE fusion protein) (Fc fusion)
chain: QSTIEEQAKLFLDKFNVEAEDLFYQSSLASWNYNTNITEENVQNMNNAGDKWSAFLKEQSTLAQMYPLQEIQELTVKLQLQALQQNGSSVLSEDKSKRLNTILNTMSTIYSTGKVCNPDNPQECLLLEPGLNEIMANSLDYNERLWAWESWRSEVGKQLRPLYEEYVVLKNEMARANHYEDYGDYWRGDYEVNGVDGYDYSRGQLIEDVEHTFEEIKPLYEHLHAYVRAKLMNAYPSYISPIGCLPAHLLGDMWGRFWTNLYSLTVPFGQKPNIDVTDAMVDQAWDAQRIFKEAEKFFVSVGLPNMTQGFWENSMLTDPGNVQKAVCHPTAWDLGKGDFRILMCTKVTMDDFLTAHHEMGHIQYDMAYAAQPFLLRNGANEGFHEAVGEIMSLSAATPKHLKSIGLLSPDFQEDNETEINFLLKQALTIVGTLPFTYMLEKWRWMVFKGEIPKDQWMKKWWEMKREIVGVVEPVPHDETYCDPASLFHVSNDYSFIRYYTRTLYQFQFQEALCQAAKHEGPLHKCDISNSTEAGQKLFNMLRLGKSEPWTLALENVVGAKNMNVRPLLNYFEPLFTWLKDQNKNSFVGWSTDWSPYADQSIKVRISLKSALGDKAYEWNDNEMYLFRSSVAYAMRQYFLKVKNQMILFGEEDVRVANLKPRISFNFFVTAPKNVSDIIPRTEVEKAIRMSRSRINDAFRLNDNSLEFLGIQPTLGPPNQPPVS
The Kd is the concentration at which binding is half-saturated. Low readings indicate a tighter complex, high ones a looser complex. Take B1: binding was characterised by a dissociation constant (Kd) of 27 nM.
